In article PMC2596486 (PLoS ONE, 2008):

How the values were obtained:
[1] = molecular target: T1, rHA subtype H7 (A/Netherlands/219/03) (Influenza A virus …, UniProt Q6VMK1); assay: ELISA; conditions: both partners purified
T1 construct: source: bought: Protein Sciences Corp. (baculovirus vectors in insect cells)

[2] = molecular target: T2, rHA subtype H1 (A/New Caledonia/20/99) (Influenza A virus A/New …, UniProt Q6WG00, strain); assay: ELISA; conditions: both partners purified
T2 construct: source: bought: Protein Sciences Corp. (baculovirus vectors in insect cells)

B1: CR6323 human IgG1 (antibody, V domains shown)
VH: EVQLVESGAEVKKPGSSVKVSCKASGGTFSSYGISWVRQAPGQGLEWMGDIIGMFGSTNYAQNFQGRLTITADESTSTAYMELSSLRSEDTAVYYCARSSGYYPAYLPHWGQGTLVTVSS
VL: not shown
B1: no binding (tested: 5 µg/ml IgG1) [1]; binds [2].
